Assay results from article PMC3252399.

T1: Ndc10 DV (Kluyveromyces lactis, UniProt Q6CPM4 631-736)
T1 sequence: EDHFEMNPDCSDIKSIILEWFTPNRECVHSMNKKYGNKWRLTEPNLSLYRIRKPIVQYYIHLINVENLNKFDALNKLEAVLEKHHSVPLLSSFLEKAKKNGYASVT

T2: Ndc10 DI-III (Kluyveromyces lactis, UniProt Q6CPM4 1-534)
T2 sequence: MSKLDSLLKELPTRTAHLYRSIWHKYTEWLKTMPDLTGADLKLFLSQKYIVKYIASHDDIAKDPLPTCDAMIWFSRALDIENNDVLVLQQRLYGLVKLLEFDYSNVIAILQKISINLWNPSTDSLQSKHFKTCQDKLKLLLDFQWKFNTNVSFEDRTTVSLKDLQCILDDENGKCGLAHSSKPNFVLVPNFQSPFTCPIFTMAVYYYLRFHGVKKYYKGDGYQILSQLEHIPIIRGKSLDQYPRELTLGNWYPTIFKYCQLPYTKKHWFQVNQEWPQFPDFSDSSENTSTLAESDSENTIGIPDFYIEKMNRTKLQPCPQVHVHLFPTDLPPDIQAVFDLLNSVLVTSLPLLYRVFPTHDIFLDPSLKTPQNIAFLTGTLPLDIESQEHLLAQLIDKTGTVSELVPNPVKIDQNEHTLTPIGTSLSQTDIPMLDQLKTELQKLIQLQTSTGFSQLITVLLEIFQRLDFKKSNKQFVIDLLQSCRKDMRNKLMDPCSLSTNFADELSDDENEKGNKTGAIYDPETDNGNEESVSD

T3: Ndc10 DI-II (Kluyveromyces lactis, UniProt Q6CPM4 1-403)
T3 sequence: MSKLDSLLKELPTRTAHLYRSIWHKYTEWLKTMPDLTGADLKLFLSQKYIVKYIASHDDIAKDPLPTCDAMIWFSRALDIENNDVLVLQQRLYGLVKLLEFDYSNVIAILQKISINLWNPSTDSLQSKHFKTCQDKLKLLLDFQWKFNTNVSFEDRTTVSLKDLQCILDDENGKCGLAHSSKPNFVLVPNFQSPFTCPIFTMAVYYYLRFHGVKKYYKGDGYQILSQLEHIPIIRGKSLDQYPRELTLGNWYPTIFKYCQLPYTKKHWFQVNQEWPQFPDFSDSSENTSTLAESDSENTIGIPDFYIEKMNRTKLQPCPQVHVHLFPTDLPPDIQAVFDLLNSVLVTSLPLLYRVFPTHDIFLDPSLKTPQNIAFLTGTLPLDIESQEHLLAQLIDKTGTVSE

T4: Ndc10 full-length (Kluyveromyces lactis, UniProt Q6CPM4 1-736)
T4 sequence: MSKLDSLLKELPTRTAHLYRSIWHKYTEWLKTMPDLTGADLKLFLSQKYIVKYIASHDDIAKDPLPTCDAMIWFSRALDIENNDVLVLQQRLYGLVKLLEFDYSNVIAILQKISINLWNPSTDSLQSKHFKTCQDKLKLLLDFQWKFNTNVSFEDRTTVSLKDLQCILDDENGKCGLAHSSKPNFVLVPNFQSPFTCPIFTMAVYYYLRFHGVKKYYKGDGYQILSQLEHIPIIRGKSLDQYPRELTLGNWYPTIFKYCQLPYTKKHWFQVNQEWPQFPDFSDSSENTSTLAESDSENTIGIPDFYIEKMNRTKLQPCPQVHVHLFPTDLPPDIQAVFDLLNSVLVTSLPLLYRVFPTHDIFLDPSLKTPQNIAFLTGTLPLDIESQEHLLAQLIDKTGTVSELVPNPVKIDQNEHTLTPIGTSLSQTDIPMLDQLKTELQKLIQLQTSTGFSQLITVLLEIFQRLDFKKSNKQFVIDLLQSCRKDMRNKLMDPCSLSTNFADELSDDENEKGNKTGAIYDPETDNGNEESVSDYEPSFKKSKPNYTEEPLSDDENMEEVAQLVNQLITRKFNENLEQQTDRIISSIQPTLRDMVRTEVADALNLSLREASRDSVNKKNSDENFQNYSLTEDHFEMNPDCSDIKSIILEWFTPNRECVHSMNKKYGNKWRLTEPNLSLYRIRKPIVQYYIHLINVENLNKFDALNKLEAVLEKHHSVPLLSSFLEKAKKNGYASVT


Columns and labels:
[1] = molecular target: K. lactis Ndc10 DI–III (residues 1–534), purified (Kluyveromyces lactis); assay: AUC
Ndc10 DV = molecular target: T1, Ndc10 DV; assay: EMSA
Ndc10 DI-III = molecular target: T2, Ndc10 DI-III; assay: EMSA
Ndc10 DI-II = molecular target: T3, Ndc10 DI-II; assay: ITC
Ndc10 full-length = molecular target: T4, Ndc10 full-length; assay: fluorescence anisotropy

Row | stoichiometry N [1] | Molecule | binding result (Ndc10 DV) | binding result (Ndc10 DI-III) | binding result (Ndc10 DI-II) | binding result (Ndc10 full-length)
1 | 2 | K. lactis Ndc10 DI–III (residues 1–534), purified (domain or fragment) |  |  |  | 
2 |  | 30 bp CEN1 CDEIII (dsDNA) DNA 1: TGCTTTATGTTTCCGAAAATTATTTTATTA DNA 2: TAATAAAATAATTTTCGGAAACATAAAGCA | no binding | binds | binds | binds
